Source: patent publication US20150252107A1, “APLNR Modulators and Uses Thereof” (Regeneron Pharmaceuticals, Inc., priority 2013, published 2015)
Where “and” joins values, the source holds several entries; their conditions need not be identical. Equal values may be shown once. Entries after “also recorded” stand apart in the source; their conditions may differ.

T1: hAPLNR (Homo sapiens, UniProt P35414)
T1 construct: expressed in transfected cells
T1 sequence (P35414 1-380): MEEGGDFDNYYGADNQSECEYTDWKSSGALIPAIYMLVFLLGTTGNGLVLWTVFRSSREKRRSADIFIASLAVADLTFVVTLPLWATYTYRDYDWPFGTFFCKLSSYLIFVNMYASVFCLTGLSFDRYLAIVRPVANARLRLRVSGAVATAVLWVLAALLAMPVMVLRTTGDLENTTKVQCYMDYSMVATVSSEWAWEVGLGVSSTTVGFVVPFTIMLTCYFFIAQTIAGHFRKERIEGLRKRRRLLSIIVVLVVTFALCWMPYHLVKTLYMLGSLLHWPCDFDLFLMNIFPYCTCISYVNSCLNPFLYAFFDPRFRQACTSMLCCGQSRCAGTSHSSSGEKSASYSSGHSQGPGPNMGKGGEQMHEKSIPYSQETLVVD

T2: human APLNR (humanized APLNR mice) (Homo sapiens, UniProt P35414)
T2 construct: homozygous for expression of human APLNR in place of mouse APLNR (humanized APLNR mice); from tissue; host or cells: living humanized APLNR mouse pups (75% C57BL6 / 25% Sv129); read-out in the retina
T2 sequence (P35414 1-380): T1 sequence (P35414 1-380)

B1: H2aM9232N: antagonistic anti-APLNR antibody, HCVR/LCVR SEQ ID NOs 98/106, mouse IgG2a Fc (antibody, V domains shown)
VH: QVKLVESGGGVVQPGRSLRLSCAASGFTFSNYVIHWVRQAPGKGLEWVAVIWYDGSNKYYADSVKGRFTISRDNSKNTLYLQMNSLRAEDTAVYYCARDRVVRGVDYYYYYGLDVWGQGTSVTVSS
VL: EIVMTQSPATLSVSPGERATLSCRASQSVRSNLAWYQQKPGQAPRLLIYGASSRATGIPARFSGTGSGTEFTLTISSLQSDDFAVYYCQQYNKWPRTFGQGTKVEIK
modifications: mouse IgG2a Fc

What was measured:
hAPLNR [1] = target: T1, hAPLNR; assay: CRE assay of modified apelin peptides in HEK293/CRE-luc/hAPLNR cells; assay type: cell-based; conditions: Table 9; 5 μM forskolin
Method: After 5 hours of incubation at 37° C. in 5% CO2, luminescence was measured following the addition of One Glo reagent (Promega, #E6051) using a Victor X instrument (Perkin Elmer). The data were fit by nonlinear regression to a 4-parameter logistic equation with Prism 5 software (GraphPad).

HEK293 parental cells = assay: FACS binding to HEK293 parental cells; conditions: 10 μg/mL antibody
Method: Binding ratios for human APLNR binding to purified anti-APLNR monoclonal antibodies were determined by a fluorescence-activated cell sorting (FACS) binding assay. […] The resulting stable cell lines, HEK293/CRE-luc/hAPLNR and HEK293/CRE-luc/MfAPLNR, were maintained in DMEM containing 10% FBS, NEAA, and penicillin/streptomycin with either 100 μg/mL Hygromycin B for hAPLNR cells or 500 μg/mL G418 for MfAPLNR cells.
For the FACS analysis, HEK293 parental, HEK293/CRE-luc/hAPLNR, and, HEK293/CRE-luc/mfAPLNR cells were dissociated using Enzyme Free Dissociation reagent (#S-004, Millipore, Billerica, Mass., USA) and 10^6 cells/well were plated onto 96-well v-bottom plates in PBS containing 1% FBS. […] Cells were then filtered and analyzed on Accuri Flow Cytometer (BD Biosciences, San Jose, Calif., USA). Unstained and secondary antibody alone controls were also tested for binding to all cell lines. […] Geometric mean (Geom. mean) of fluorescence for each antibody was then normalized to geometric mean of unstained cells to obtain relative binding of antibody (binding ratios) per each cell type: HEK293 (parental), HEK293/CRE-luc/hAPLNR and HEK293/CRE-luc/MfAPLNR.

hAPLNR [2] = target: T1, hAPLNR; assay: cyclic AMP (CRE-luciferase) assay, activation of hAPLNR in HEK293/CRE-luc/hAPLNR cells; assay type: cell-based; conditions: % of maximum Apelin activation, without Apelin
Method: The ability of anti-APLNR antibodies to activate hAPLNR-mediated cell signaling was measured using a cyclic AMP assay. The hAPLNR is a 7-transmembrane G-protein coupled receptor (GPCR).
The resulting cell line, HEK293/CRE-luc/hAPLNR, was maintained in DMEM containing 10% FBS, NEAA, penicillin/streptomycin, and 100 μg/mL Hygromycin B.
Testing of antibodies included a no antibody control.
The results of all assays were analyzed using nonlinear regression (4-parameter logistics) within Prism 5 software (GraphPad).

[3] = target: T2, human APLNR (humanized APLNR mice); assay: retinal vascular development (RVD) model in humanized APLNR mouse pups; assay type: in vivo
Method: To assess the in vivo characteristics of select anti-APLNR antibodies of the invention, their ability to block APLNR-mediated angiogenesis in the eye vasculature was measured.
A retinal vascular development (RVD) model was used to evaluate the effects of an antagonistic anti-APLNR antibody on blood vessel outgrowth in the normal developing retina of mouse pups that were of a mixed background strain (75% C57BL6 and 25% Sv129) and homozygous for expression of human APLNR in place of mouse APLNR (humanized APLNR mice). Pups were subcutaneously injected on postnatal day 2 (P2) with either 50 mg/kg of an anti-APLNR antagonist antibody, H2aM9232N, or an irrelevant human Fc (hFc) control. Reagents were masked and labeled as Solution A and Solution B to prevent experimenter bias. At postnatal day 5, tissue samples were collected and then fixed in PBS containing 4% paraformaldehyde. Fixed tissue samples were washed with PBS three times for 15 minutes, and subsequently stained with GS Lectin I (Vector Laboratories, #FL-1101) diluted 1:200 in 1×PBS containing 1% BSA in 0.25% Triton-X 100 overnight at 25° C. to visualize retinal vasculature. The following day, stained samples were rinsed with PBS three times for 15 minutes each, flat-mounted onto slides, and coverslips were subsequently mounted using Prolong Gold (Invitrogen, #P36930). Images were taken at 20 times magnification using an epi-fluorescent microscope (Nikon Eclipse 80). The vascularized areas in the retina were measured from acquired images from this assay using Adobe Photoshop CS6 extended. Statistical differences between the results obtained from the IgG control antibody and H2aM9232N treated samples were assessed using a two tailed, unpaired Student T-test (**, p<0.001). Only after retinal vasculature area measurements and statistical analysis were completed, the sample identities were unmasked.

Row | Molecule | EC50 (hAPLNR [1]) [nM] | Binding Ratio of Geom. Mean to Unstained Cells, HEK293 Parental (HEK293 parental cells) | % Activation at 100 nM mAb (at 10 uM Forskolin) (hAPLNR [2]; Table 6A) | % Activation at 500 nM mAb (at […] Forskolin) (hAPLNR [2]; Table 6B) | Retinal blood vessel outgrowth (mm^2), MEAN ([3]; 50 mg/kg s.c. on postnatal day 2, read at postnatal day 5) [mm^2] | Retinal blood vessel outgrowth (mm^2), individual eye ([3]; 50 mg/kg s.c. on postnatal day 2, read at postnatal day 5, single eyes (OD/OS)) | mean reduction in retinal blood vessel outgrowth compared to control (hFc) ([3]; single s.c. injection 50 mg/kg, postnatal day 5)
1 | CSCC[C@H](NC(=O)[C@@H]1CCCN1C(=O)CNC(=O)[C@H](CCCCN)NC(=O)[C@H](Cc1c[nH]cn1)NC(=O)[C@H](CO)NC(=O)[C@H](CC(C)C)NC(=O)[C@H](CCCNC(=N)N)NC(=O)[C@@H]1CCCN1C(=O)[C@H](CCCNC(=N)N)NC(=O)[C@@H](N)CCC(N)=O)C(=O)N1CCC[C@H]1C(=O)N[C@@H](Cc1ccccc1)C(=O)NCC(=O)NCC(=O)NCC(=O)NCC(=O)NCC(=O)O [Apelin-13 + 5G] | 0.147 |  |  |  |  |  | 
2 | B1 |  | 6 | No Activation | did not demonstrate any measurable activation; also recorded: No Activation | 2.84 | 2.49 mm^2 and 3.04 mm^2 and 3.57 mm^2 and 3.32 mm^2 and 2.23 mm^2 and 2.36 mm^2 | approximately 30%
